Experiments:
IL-17C = target: T1, IL-17C (human); assay: competition ELISA
T1 chain: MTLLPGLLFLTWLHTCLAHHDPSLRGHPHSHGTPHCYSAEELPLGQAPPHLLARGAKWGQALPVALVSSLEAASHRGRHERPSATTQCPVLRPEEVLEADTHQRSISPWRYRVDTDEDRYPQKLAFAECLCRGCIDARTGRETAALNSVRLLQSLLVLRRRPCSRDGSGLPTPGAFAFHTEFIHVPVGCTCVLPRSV

IL-17D = target: T2, IL-17D (human); assay: competition
T2 chain: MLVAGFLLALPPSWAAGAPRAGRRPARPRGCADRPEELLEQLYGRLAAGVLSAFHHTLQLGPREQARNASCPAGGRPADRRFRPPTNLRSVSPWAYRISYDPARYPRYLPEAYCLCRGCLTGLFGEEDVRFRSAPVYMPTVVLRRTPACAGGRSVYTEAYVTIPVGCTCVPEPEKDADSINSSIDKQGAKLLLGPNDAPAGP

IL-17B = target: T3, IL-17B (human); assay: competition ELISA
T3 chain: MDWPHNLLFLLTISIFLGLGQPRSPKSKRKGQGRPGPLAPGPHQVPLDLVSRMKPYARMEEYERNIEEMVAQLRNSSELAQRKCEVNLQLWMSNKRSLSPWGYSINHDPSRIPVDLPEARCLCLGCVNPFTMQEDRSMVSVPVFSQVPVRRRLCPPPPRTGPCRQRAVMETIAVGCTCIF

human IL-17A [1] = target: T4, human IL-17A (human); assay: SPR, capture setup
T4 chain: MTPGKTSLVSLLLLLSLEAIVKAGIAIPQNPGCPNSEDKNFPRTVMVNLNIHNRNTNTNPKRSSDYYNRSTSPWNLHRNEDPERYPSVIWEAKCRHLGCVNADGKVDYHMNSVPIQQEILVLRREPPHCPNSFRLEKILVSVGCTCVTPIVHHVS

human IL-17A [2] = target: T4, human IL-17A; assay: SPR, direct setup
IL-17E = target: T5, IL-17E (human); assay: competition ELISA
T5 chain: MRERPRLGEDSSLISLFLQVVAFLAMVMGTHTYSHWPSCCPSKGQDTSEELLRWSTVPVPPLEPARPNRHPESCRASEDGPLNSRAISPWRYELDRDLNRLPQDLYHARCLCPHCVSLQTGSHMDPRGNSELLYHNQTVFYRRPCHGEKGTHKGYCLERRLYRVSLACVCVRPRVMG

IL-17F = target: T6, IL-17F (human); assay: competition ELISA
T6 chain: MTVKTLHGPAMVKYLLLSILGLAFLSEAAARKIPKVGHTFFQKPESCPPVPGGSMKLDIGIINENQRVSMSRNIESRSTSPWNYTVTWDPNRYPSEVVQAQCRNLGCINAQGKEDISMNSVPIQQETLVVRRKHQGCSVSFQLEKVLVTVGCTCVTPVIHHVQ

human TNFa = human TNFa (human); assay: SPR
human IL-17A [3] = target: T4, human IL-17A; assay: SPR

B1: PRO592 (27-31-C04-sc02) (antibody)
chain: DIQMTQSPSSLSASVGDRVTITCQASESIYRYLSWYQQKPGKAPKLLIYLASTLTSGVPSRFSGSGSGTDFTLTISSLQPEDFATYYCQSNFGTASTTYYNTFGGGTKLTVLGGGGGSGGGGSGGGGSGGGGSEVQLVESGGGLVQPGGSLTLSCAASGFSFSGFYYMCWVRQAPGKGLEWIGCIDTGDGTTYYASWAKGRFTISRDNSKNTVYLQMNSLRAEDTAVYYCARDAAYGGYAYPAHGMDLWGPGTLVTVSS
Question: Does B1 bind (IL-17C)?
Answer: Result: no binding

Question: Does B1 bind (IL-17D)?
Answer: Result: no binding

Question: Does B1 bind (IL-17B)?
Answer: Result: no binding

Question: And the Kd (human IL-17A [1])?
Answer: The Kd was 0.37 nM.

Question: And the Kd (human IL-17A [2])?
Answer: The Kd was 0.038 nM.

Question: Does B1 bind (IL-17E)?
Answer: Result: no binding

Question: Does B1 bind (IL-17F)?
Answer: Result: no binding

B2: A5 TNFa arm (antibody)
chain 1: EVQLVESGGGLVQPGGSLRLSCAASGIDFSTYGISWVRQAPGKGLEWIAYIYPDYGITDYASWVNGRFTISLDNAQNTVYLQMNSLRAEDTAVYYCARSGSYYSRGWGAHYFNLWGQGTLVTVSSASTKGPSVFPLAPSSKSTSGGTAALGCLVKDYFPEPVTVSWNSGALTSGVHTFPAVLQSSGLYSLSSVVTVPSSSLGTQTYICNVNHKPSNTKVDKKVEPKSCGGGGSGGGGSDIQMTQSPSSLSASVGDRVTITCQASQTINYWLAWYQQKPGKAPKLLIYRASTLASGVPSRFSGSGSGTDFTLTISSLQPEDFATYYCQNYYYSTSRSYGFGGGTKLTVLGGGGGSGGGGSGGGGSGGGGSEVQLVESGGGLVQPGGSLRLSCAASGFSFSSDYWMCWVRQAPGKGLEWIGCIYAGDVDDTDYASWARGRFTISRDNSKNTVYLQMNSLRAEDTAVYYCARVDGFDITYFDLWGQGTLVTVSS
chain 2: DIQMTQSPSSLSASVGDRVTINCQASESISSWLAWYQQKPGKRPKLLIYKASTLASGVPSRFSGSGSGTDYTLTISSLQPEDFATYYCQGYYLDSSVDDNVFGGGTKLTVLGRTRTVAAPSVFIFPPSDEQLKSGTASVVCLLNNFYPREAKVQWKVDNALQSGNSQESVTEQDSKDSTYSLSSTLTLSKADYEKHKVYACEVTHQGLSSPVTKSFNRGECGGGGSGGGGSDIQMTQSPSSLSASVGDRVTITCQSSESVYSNNQLSWYQQKPGQPPKLLIYDASDLASGVPSRFSGSGSGTDFTLTISSLQPEDFATYYCAGGFSSSSDTAFGGGTKLTVLGGGGGSGGGGSGGGGSGGGGSEVQLVESGGGLVQPGGSLRLSCAASGFSLSSNAMGWVRQAPGKGLEYIGIISVGGFTYYASWAKGRFTISRDNSKNTVYLQMNSLRAEDTATYFCARDRHGGDSSGAFYLWGQGTLVTVSS
Question: For B2, which Kd (human TNFa) is on record?
Answer: Its Kd is 0.1 nM.

B3: A2 (27-07-G02-sc02) (antibody)
chain: DIQMTQSPSSLSASVGDRVTITCQASQTINYWLAWYQQKPGKPPKLLIYRASTLASGVPSRFSGSGSGTDFTLTISSLQPEDFATYYCQNYYYSTSRSYGFGGGTKLTVLGGGGGSGGGGSGGGGSGGGGSEVQLVESGGGLVKPEGSLRLSCAASGFSFSSDYWMCWVRQAPGKGLEWIACIYAGDVDDTDYASWARGRFTISRDNSKNTVYLQMNSLRAEDTAVYYCARVDGFDITYFDLWGQGTLVTVSS
Question: Does B3 bind (IL-17C)?
Answer: Result: no binding

Question: Does B3 bind (IL-17D)?
Answer: Result: no binding

Question: Does B3 bind (IL-17B)?
Answer: Result: no binding

Question: And the Kd (human IL-17A [1])?
Answer: The Kd was 3 nM.

Question: And the Kd (human IL-17A [2])?
Answer: Its Kd is 0.055 nM.

Question: Does B3 bind (IL-17E)?
Answer: Result: no binding

Question: Does B3 bind (IL-17F)?
Answer: Result: no binding

B4: A3 TNFa arm (antibody)
chain 1: EVQLVESGGGLVQPGGSLRLSCAASGFSLSSNAMGWVRQAPGKGLEYIGIISVGGFTYYASWAKGRFTISRDNSKNTVYLQMNSLRAEDTATYFCARDRHGGDSSGAFYLWGQGTLVTVSSASTKGPSVFPLAPSSKSTSGGTAALGCLVKDYFPEPVTVSWNSGALTSGVHTFPAVLQSSGLYSLSSVVTVPSSSLGTQTYICNVNHKPSNTKVDKKVEPKSCGGGGSGGGGSDIQMTQSPSSLSASVGDRVTITCQASQTINYWLAWYQQKPGKAPKLLIYRASTLASGVPSRFSGSGSGTDFTLTISSLQPEDFATYYCQNYYYSTSRSYGFGGGTKLTVLGGGGGSGGGGSGGGGSGGGGSEVQLVESGGGLVQPGGSLRLSCAASGFSFSSDYWMCWVRQAPGKGLEWIGCIYAGDVDDTDYASWARGRFTISRDNSKNTVYLQMNSLRAEDTAVYYCARVDGFDITYFDLWGQGTLVTVSS
chain 2: DIQMTQSPSSLSASVGDRVTITCQSSESVYSNNQLSWYQQKPGQPPKLLIYDASDLASGVPSRFSGSGSGTDFTLTISSLQPEDFATYYCAGGFSSSSDTAFGGGTKLTVLGRTRTVAAPSVFIFPPSDEQLKSGTASVVCLLNNFYPREAKVQWKVDNALQSGNSQESVTEQDSKDSTYSLSSTLTLSKADYEKHKVYACEVTHQGLSSPVTKSFNRGECGGGGSGGGGSDIQMTQSPSSLSASVGDRVTINCQASESISSWLAWYQQKPGKRPKLLIYKASTLASGVPSRFSGSGSGTDYTLTISSLQPEDFATYYCQGYYLDSSVDDNVFGGGTKLTVLGGGGGSGGGGSGGGGSGGGGSEVQLVESGGGLVQPGGSLRLSCAASGIDFSTYGISWVRQAPGKGLEWIAYIYPDYGITDYASWVNGRFTISLDNAQNTVYLQMNSLRAEDTAVYYCARSGSYYSRGWGAHYFNLWGQGTLVTVSS
Question: For B4, which Kd (human TNFa) is on record?
Answer: The Kd was < 0.0232 nM.

B5: A4 IL-17A arm (antibody)
chain 1: EVQLVESGGGLVQPGGSLRLSCAASGFSFSSDYWMCWVRQAPGKGLEWIGCIYAGDVDDTDYASWARGRFTISRDNSKNTVYLQMNSLRAEDTAVYYCARVDGFDITYFDLWGQGTLVTVSSASTKGPSVFPLAPSSKSTSGGTAALGCLVKDYFPEPVTVSWNSGALTSGVHTFPAVLQSSGLYSLSSVVTVPSSSLGTQTYICNVNHKPSNTKVDKKVEPKSCGGGGSGGGGSDIQMTQSPSSLSASVGDRVTITCQSSESVYSNNQLSWYQQKPGQPPKLLIYDASDLASGVPSRFSGSGSGTDFTLTISSLQPEDFATYYCAGGFSSSSDTAFGGGTKLTVLGGGGGSGGGGSGGGGSGGGGSEVQLVESGGGLVQPGGSLRLSCAASGFSLSSNAMGWVRQAPGKGLEYIGIISVGGFTYYASWAKGRFTISRDNSKNTVYLQMNSLRAEDTATYFCARDRHGGDSSGAFYLWGQGTLVTVSS
chain 2: DIQMTQSPSSLSASVGDRVTITCQASQTINYWLAWYQQKPGKAPKLLIYRASTLASGVPSRFSGSGSGTDFTLTISSLQPEDFATYYCQNYYYSTSRSYGFGGGTKLTVLGRTRTVAAPSVFIFPPSDEQLKSGTASVVCLLNNFYPREAKVQWKVDNALQSGNSQESVTEQDSKDSTYSLSSTLTLSKADYEKHKVYACEVTHQGLSSPVTKSFNRGECGGGGSGGGGSDIQMTQSPSSLSASVGDRVTINCQASESISSWLAWYQQKPGKRPKLLIYKASTLASGVPSRFSGSGSGTDYTLTISSLQPEDFATYYCQGYYLDSSVDDNVFGGGTKLTVLGGGGGSGGGGSGGGGSGGGGSEVQLVESGGGLVQPGGSLRLSCAASGIDFSTYGISWVRQAPGKGLEWIAYIYPDYGITDYASWVNGRFTISLDNAQNTVYLQMNSLRAEDTAVYYCARSGSYYSRGWGAHYFNLWGQGTLVTVSS
Question: B5 was tested. Which Kd (human IL-17A [3]) did it give?
Answer: Its Kd is 0.337 nM.

B6: A4 TNFa arm (antibody)
chain 1: EVQLVESGGGLVQPGGSLRLSCAASGFSFSSDYWMCWVRQAPGKGLEWIGCIYAGDVDDTDYASWARGRFTISRDNSKNTVYLQMNSLRAEDTAVYYCARVDGFDITYFDLWGQGTLVTVSSASTKGPSVFPLAPSSKSTSGGTAALGCLVKDYFPEPVTVSWNSGALTSGVHTFPAVLQSSGLYSLSSVVTVPSSSLGTQTYICNVNHKPSNTKVDKKVEPKSCGGGGSGGGGSDIQMTQSPSSLSASVGDRVTITCQSSESVYSNNQLSWYQQKPGQPPKLLIYDASDLASGVPSRFSGSGSGTDFTLTISSLQPEDFATYYCAGGFSSSSDTAFGGGTKLTVLGGGGGSGGGGSGGGGSGGGGSEVQLVESGGGLVQPGGSLRLSCAASGFSLSSNAMGWVRQAPGKGLEYIGIISVGGFTYYASWAKGRFTISRDNSKNTVYLQMNSLRAEDTATYFCARDRHGGDSSGAFYLWGQGTLVTVSS
chain 2: DIQMTQSPSSLSASVGDRVTITCQASQTINYWLAWYQQKPGKAPKLLIYRASTLASGVPSRFSGSGSGTDFTLTISSLQPEDFATYYCQNYYYSTSRSYGFGGGTKLTVLGRTRTVAAPSVFIFPPSDEQLKSGTASVVCLLNNFYPREAKVQWKVDNALQSGNSQESVTEQDSKDSTYSLSSTLTLSKADYEKHKVYACEVTHQGLSSPVTKSFNRGECGGGGSGGGGSDIQMTQSPSSLSASVGDRVTINCQASESISSWLAWYQQKPGKRPKLLIYKASTLASGVPSRFSGSGSGTDYTLTISSLQPEDFATYYCQGYYLDSSVDDNVFGGGTKLTVLGGGGGSGGGGSGGGGSGGGGSEVQLVESGGGLVQPGGSLRLSCAASGIDFSTYGISWVRQAPGKGLEWIAYIYPDYGITDYASWVNGRFTISLDNAQNTVYLQMNSLRAEDTAVYYCARSGSYYSRGWGAHYFNLWGQGTLVTVSS
Question: Which Kd (human TNFa) does the source give for B6 here?
Answer: Its Kd is 0.257 nM.
